B1: recombinant full-length human MASP-3 (protein)
chain: HTVELNNMFGQIQSPGYPDSYPSDSEVTWNITVPDGFRIKLYFMHFNLESSYLCEYDYVKVETEDQVLATFCGRETTDTEQTPGQEVVLSPGSFMSITFRSDFSNEERFTGFDAHYMAVDVDECKEREDEELSCDHYCHNYIGGYYCSCRFGYILHTDNRTCRVECSDNLFTQRTGVITSPDFPNPYPKSSECLYTIELEEGFMVNLQFEDIFDIEDHPEVPCPYDYIKIKVGPKVLGPFCGEKAPEPISTQSHSVLILFHSDNSGENRGWRLSYRAAGNECPELQPPVHGKIEPSQAKYFFKDQVLVSCDTGYKVLKDNVEMDTFQIECLKDGTWSNKIPTCKIVDCRAPGELEHGLITFSTRNNLTTYKSEIKYSCQEPYYKMLNNNTGIYTCSAQGVWMNKVLGRSLPTCLPECGQPSRSLPSLVKRIIGGRNAEPGLFPWQALIVVEDTSRVPNDKWFGSGALLSASWILTAAHVLRSQRRDTTVIPVSKEHVTVYLGLHDVRDKSGAVNSSAARVVLHPDFNIQNYNHDIALVQLQEPVPLGPHVMPVCLPRLEPEGPAPHMLGLVAGWGISNPNVTVDEIISSGTRTLSDVLQYVKLPVVPHAECKTSYESRSGNYSVTENMFCAGYYEGGKDTCLGDSGGAFVIFDDLSQRWVVQGLVSWGGPEECGSKQVYGVYTKVSNYVDWVWEQMGLPQSVVEPQVER
B2: recombinant human MASP-1 (CCP1-CCP2-SP) fragment, active (protein)
chain: GNECPELQPPVHGKIEPSQAKYFFKDQVLVSCDTGYKVLKDNVEMDTFQIECLKDGTWSNKIPTCKIVDCRAPGELEHGLITFSTRNNLTTYKSEIKYSCQEPYYKMLNNNTGIYTCSAQGVWMNKVLGRSLPTCLPVCGLPKFSRKLMARIFNGRPAQKGTTPWIAMLSHLNGQPFCGGSLLGSSWIVTAAHCLHQSLDPKDPTLRDSDLLSPSDFKIILGKHWRLRSDENEQHLGVKHTTLHPKYDPNTFENDVALVELLESPVLNAFVMPICLPEGPQQEGAMVIVSGWGKQFLQRFPETLMEIEIPIVDHSTCQKAYAPLKKKVTRDMICAGEKEGGKDACSGDSGGPMVTLNRERGQWYLVGTVSWGDDCGKKDRYGVYSYIHHNKDWIQRVTGVRN

Molecular target: ST-pro-factor D-His, P00746
Sequence (P00746 whole entry, looked up): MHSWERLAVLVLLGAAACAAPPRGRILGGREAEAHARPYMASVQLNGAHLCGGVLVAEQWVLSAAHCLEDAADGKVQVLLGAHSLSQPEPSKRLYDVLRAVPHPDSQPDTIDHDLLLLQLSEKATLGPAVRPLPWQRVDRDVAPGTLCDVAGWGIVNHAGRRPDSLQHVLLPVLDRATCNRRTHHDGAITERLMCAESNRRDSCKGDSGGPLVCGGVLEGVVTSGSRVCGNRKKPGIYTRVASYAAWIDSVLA

Protein | cleavage of pro-factor D (Western blot)
B1 | only full length MASP-3 (lane 2) and the MASP-1 CCP1-CCP2-SP) fragment (lane 5) cleaved ST-pro-factor D-His6
B2 | only full length MASP-3 (lane 2) and the MASP-1 CCP1-CCP2-SP) fragment (lane 5) cleaved ST-pro-factor D-His6
